Laboratory results reported in patent publication US20230056252A1 (Gilead, published 2023).
Changes are numbered by the printed parent chain.

B1: huSP34.2.1 Fab-HF (Fab, V domains shown)
VH: EVQLVESGGGLVQPGGSLRLSCAASGFTFSTYAMNWVRQAPGKGLEWVGRIRSKYNNYATYYAASVKGRFTISRDDSKNSLYLQMNSLKTEDTAMYYCVRHGNFGNSYVSWFAVWGQGTLVTVSS
VL: QAVVTQEPSLTVSPGGTVTLTCRSSTGAVTTSNYANWVQQKPGQAPRGLIGGTNKRAPWTPARFSGSLIGDKAALTLSGAQPEDEAEYYCALWYSNLWVFGGGTKLTVL
notes: also called HC2+LC1
B2: huSP34.6.5 Fab-HF (Fab, V domains shown)
VH: B1 VH with A64D, D76N, S80T, K89R, T90A
VL: B1 VL with R23G, S32G, N33H, N54S, K55N, I69L, D71G, N96A, L97R
notes: also called HC6+LC5
B3: huSP34.3.5 Fab-HF (Fab, V domains shown)
VH: B1 VH with S30N, A64D, K89R, M95V, N106H, V114Y
VL: B1 VL with R23G, S32G, N33H, N54S, K55N, I69L, D71G, N96A, L97R
notes: also called HC3+LC5
B4: huSP34.3.2 Fab-HF (Fab, V domains shown)
VH: B1 VH with S30N, A64D, K89R, M95V, N106H, V114Y
VL: B1 VL with R23G, N54S, K55N, I69L, D71G
notes: also called HC3+LC2
B5: huSP34.2.6 Fab-HF (Fab, V domains shown)
VH: B1 VH
VL: QAVVTQPPSLTVSPGGTVTLTCGSSTGAVTTGHYANWVQQKPGQAPRGLIGGTSNRAPGVPARFSGSLSGGKAALTISGAQPEDEAEYYCALWYSARWVFGGGTKLTVL
notes: also called HC2+LC6
B6: huSP34.6.1 Fab-HF (Fab, V domains shown)
VH: B1 VH with A64D, D76N, S80T, K89R, T90A
VL: B1 VL
notes: also called HC6+LC1
B7: huSP34.3.4 Fab-HF (Fab, V domains shown)
VH: B1 VH with S30N, A64D, K89R, M95V, N106H, V114Y
VL: B1 VL with R23G, N33H, N54S, I69L, D71G, N96A
notes: also called HC3+LC4
B8: huSP34.4.4 Fab-HF (Fab, V domains shown)
VH: B1 VH with K89R, M95V, N106H
VL: B1 VL with R23G, N33H, N54S, I69L, D71G, N96A
notes: also called HC4+LC4
B9: huSP34.4.5 Fab-HF (Fab, V domains shown)
VH: B1 VH with K89R, M95V, N106H
VL: B5 VL with P7E, G59W, V60T, S69L, I77L
notes: also called HC4+LC5
B10: huSP34.5.1 Fab-HF (Fab, V domains shown)
VH: B1 VH with A64D, D76N, S80T, K89R, T90A, M95V, N106H
VL: B1 VL
notes: also called HC5+LC1
B11: huSP34.3.1 Fab-HF (Fab, V domains shown)
VH: B1 VH with S30N, A64D, K89R, M95V, N106H, V114Y
VL: B1 VL
notes: also called HC3+LC1
B12: huSP34.7.1 Fab-HF (Fab, V domains shown)
VH: B1 VH with T31D, I51T, M95V
VL: B1 VL
notes: also called HC7+LC1
B13: huSP34.5.2 Fab-HF (Fab, V domains shown)
VH: B1 VH with A64D, D76N, S80T, K89R, T90A, M95V, N106H
VL: B1 VL with R23G, N54S, K55N, I69L, D71G
notes: also called HC5+LC2
B14: huSP34.2.5 Fab-HF (Fab, V domains shown)
VH: B1 VH
VL: B5 VL with P7E, G59W, V60T, S69L, I77L
notes: also called HC2+LC5
B15: huSP34.2.2 Fab-HF (Fab, V domains shown)
VH: B1 VH
VL: B1 VL with R23G, N54S, K55N, I69L, D71G
notes: also called HC2+LC2
B16: huSP34.5.5 Fab-HF (Fab, V domains shown)
VH: B1 VH with A64D, D76N, S80T, K89R, T90A, M95V, N106H
VL: B5 VL with P7E, G59W, V60T, S69L, I77L
notes: also called HC5+LC5
B17: huSP34.4.1 Fab-HF (Fab, V domains shown)
VH: B1 VH with K89R, M95V, N106H
VL: B1 VL
notes: also called HC4+LC1
B18: huSP34.2.4 Fab-HF (Fab, V domains shown)
VH: B1 VH
VL: B1 VL with R23G, N33H, N54S, I69L, D71G, N96A
notes: also called HC2+LC4
B19: huSP34.5.4 Fab-HF (Fab, V domains shown)
VH: B1 VH with A64D, D76N, S80T, K89R, T90A, M95V, N106H
VL: B1 VL with R23G, N33H, N54S, I69L, D71G, N96A
notes: also called HC5+LC4
B20: huSP34.4.2 Fab-HF (Fab, V domains shown)
VH: B1 VH with K89R, M95V, N106H
VL: B1 VL with R23G, N54S, K55N, I69L, D71G
notes: also called HC4+LC2
B21: huSP34.4.6 Fab-HF (Fab, V domains shown)
VH: B1 VH with K89R, M95V, N106H
VL: B5 VL
notes: also called HC4+LC6
B22: huSP34.3.6 Fab-HF (Fab, V domains shown)
VH: B1 VH with S30N, A64D, K89R, M95V, N106H, V114Y
VL: B5 VL
notes: also called HC3+LC6
B23: huSP34.6.2 Fab-HF (Fab, V domains shown)
VH: B1 VH with A64D, D76N, S80T, K89R, T90A
VL: B1 VL with R23G, N54S, K55N, I69L, D71G
notes: also called HC6+LC2
B24: huSP34.6.4 Fab-HF (Fab, V domains shown)
VH: B1 VH with A64D, D76N, S80T, K89R, T90A
VL: B1 VL with R23G, N33H, N54S, I69L, D71G, N96A
notes: also called HC6+LC4
B25: mSP34 Fab-HF (Fab, V domains shown)
VH: EVKLLESGGGLVQPKGSLKLSCAASGFTFNTYAMNWVRQAPGKGLEWVARIRSKYNNYATYYADSVKDRFTISRDDSQSILYLQMNNLKTEDTAMYYCVRHGNFGNSYVSWFAYWGQGTLVTVSA
VL: QAVVTQESALTTSPGETVTLTCRSSTGAVTTSNYANWVQEKPDHLFTGLIGGTNKRAPGVPARFSGSLIGDKAALTITGAQTEDEAIYFCALWYSNLWVFGGGTKLTVLG
notes: also called mSP34 chimeric Fab; mSP34 human chimeric Fab

Molecular target: T1, biotinylated CD3 epsilon:delta heterodimer protein (Amsbio AMS.CDD-H52WO) (Homo sapiens (Human), UniProt P07766 23-126; P04234 22-105)
T1 construct: also called CD3 heterodimer
Test: BLI (Octet), CD3 on SA sensor, Fab analyte;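 also: biolayer interferometry with biotinylated CD3 epsilon:delta captured on streptavidin sensors, Fab analyte at several concentrations up to 300 nM, 100 s association then 300 s dissociation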
Experimental: The CD3 binding kinetics of the purified huSP34 Fabs were determined using OctetRed384 (Pall ForteBio, CA) biolayer interferometry (BLI). […] Streptavidin (SA) coated biosensors tips (Pall ForteBio, CA) were used to capture biotinylated CD3 epsilon: delta heterodimer and typical immobilization levels captured on the SA sensors were 1 nm which approximately translates to 300 ng/ml of captured protein. For kinetic measurements biosensors were first pre-wetted with assay buffer for 10 minutes to remove protective sucrose coating followed by the recommended regeneration conditions for standardization of the biosensor surface for the experiment. In order to load the biosensors with antigen, 300 ng/ml of biotinylated CD3 epsilon: delta heterodimer protein (Amsbio AMS.CDD-H52WO) was immobilized on the SA sensor for 900 seconds. The CD3 loaded biosensors were then blocked with 20 ug/ml biocytin (sigma) for 200 seconds and then dipped into assay buffer containing wells for 200 seconds to remove any non-specific protein or unbound CD3 heterodimer.
CD3 loaded and biocytin blocked biosensors were then transferred into fresh assay buffer for 200 seconds to collect a baseline read. Kinetic measurements for anti-CD3 Fab and bispecific antibody binding were performed by dipping the CD3-coated biosensors into wells containing multiple concentrations of Fab or Ab (0-300 nM) for 100 seconds followed by a 300 second dissociation time by transferring the biosensors into assay buffer containing wells. The CD3 loaded sensors were then regenerated for the next kinetic measurement. Biosensors were generated by removing bound Fabs or Ab from immobilized CD3 on SA biosensors. Regeneration conditions used consisted of 3 cycles of 5 seconds of dipping the biosensors in Regeneration Buffer (10 mM Glycine HCl pH 1.5) followed by Assay Buffer (10 mM sodium phosphate pH 7.4, 140 mM Sodium Chloride, 0.005% Tween20 with 0.2% BSA).

Binder | Kd [nM] | koff [s⁻¹] | kon [M⁻¹ s⁻¹]
B1 | 24.6 | 0.00596 | 246000
B2 | 353 | 0.0963 | 273000
B3 | 68.5 | 0.0177 | 260000
B4 | 25.4 | 0.00952 | 381000
B5 | 30.6 | 0.0107 | 351000
B6 | 53.9 | 0.0199 | 478000
B7 | 85.8 | 0.0246 | 287000
B8 | 159 | 0.0436 | 274000
B9 | 211 | 0.0506 | 241000
B10 | 123 | 0.0365 | 311000
B11 | 14.7 | 0.00366 | 252000
B12 | 372 | 0.0855 | 235000
B13 | 1200 | 0.109 | 90800
B14 | 162 | 0.0408 | 251000
B15 | 26.4 | 0.0141 | 609000
B16 | 666 | 0.185 | 277000
B17 | 19.8 | 0.00723 | 396000
B18 | 99.4 | 0.0335 | 398000
B19 | 497 | 0.213 | 429000
B20 | 45.2 | 0.0144 | 321000
B21 | 22.7 | 0.0101 | 451000
B22 | 18.9 | 0.00482 | 266000
B23 | 351 | 0.0499 | 144000
B24 | 570 | 0.202 | 359000
B25 | 9.6 | 0.0025 | 262000
